Experimental findings from PMC9354405 are described below.

As a reminder, the stoichiometry N is a count of units in the complex or per binding partner.

The target of this assay is HBV S/preS1^16-42 chimeric antigen (Hepatitis B virus, genotype D) (UniProt P03138). Nature of the assay: SDS-PAGE under non-reducing conditions with western blot; lysates of transfected HEK293T cells, -DTT, detected with anti-preS1 antibodies; dimers of ~50 kDa held by intermolecular disulfide bonds. Background: A western blot detects proteins with antibodies after separation by electrophoresis.

In turn, “HBV S/preS1^16-42 chimeric antigen (from UniProt P03138 16-42)” gave a stoichiometry N of 2.
